From the DeepSol protein solubility set come the findings set out here.

The series is described as follows: soluble on expression in E. coli; label from the status in PepcDB or PDB records.
Take “MGSDKIHHHHHHMKAPLVSIIIPVWNLWELTCACLDSIRAHTPGNAVEVIVVDNGSDDTTATALAPTGEGLFGARFRRIRLETNRGFAVACNLGAAKAQGTYLLLLNNDTVLSPGWLPPLLREFDDEPRTGAAGPLLVYPDSGRVQHCGIAFAPTLQTEHLYANFPATHPAVRARRTLQAITGAAMLLPTALFRQCGGFHEGYKNGCEDLELCCRIREQGLRLAVVPESLVAHHESRTPGRKEHDAANATLLNRRCSGCFGPDLHRHALRDGFAIALTPWLDTYLTLPPGREAALTREHITDFDPGRCWETLQGEPLWHGGYEMLCSILDEAGRHAESAGVRLLQAGFFPTLPGFRQLARSAALSGNDELARQAAEKMQHIGGILEDPEPLVTRARGLVRWARRAGEPAVEALYTGWLTDIGLSADD”: the “soluble on expression in E. coli” value is given as “not soluble”.

Turning to “MSEENITNVQENASDYNEDQIQVLEGLEAVRKRPGMYIGSTSQRGLHHLVWEIVDNAIDEALAGFCTEIEITIEADNSITVRDNGRGIPTGINEKIGRPTVEVIFTVLHAGGKFGGGGYKVSGGLHGVGASVVNALSTSLEVYVHREGQKYYQRFERGDVVMDMEEQGETDYRGTIVHFTPDPQIFTETTEFDFDTLRTRTRELAFLNRGLTISIEDKREEHKVRKDFHYEGGIRSYVEHLNKAKDVIHEPPIYLEGERDDIMVEISMQYNTGFSSNIISFANNIHTYEGGTHESGFKTALTRVINDYARRNKLFKDSDDNLSGEDVREGLTAIISIKHPDPQFEGQTKTKLGNSEARSITDKLFSEALNKFMMENPDVAKKIVEKGVVASRARLAAKRAREVARKSSGLEISSLPGKLADCSSRNPEISELYIVEGDSAGGSAKQGRDRLFQAILPIRGKILNVEKARLDRILANEEIRTIFTAMGTGFGGDFDVSKSRYHKLIIMTDADVDGAHIRTLLLTLFYRYMRPLLDAGYIYIAQPPLYQIKHGKQIEYVYSDGQLEDYLASLDGDTKYSIQRYKGLGEMNPEQLWDTTMNPEHRTLLQVNIKDAIDADETFEMLMGDRVEPRRKFIEDNAQYVKNLDV”, the “soluble on expression in E. coli” value is given as “not soluble”.

For the sequence “MAHHHHHHMKLPYAKLEKHSRPVRCVHAEYGCTMLFCSVRCRQAGWSRFHFAGCPGAMMSDQRDAYDEFIHHDWEYRGVDYSDTVFLAFRFVCMAVTNIRLHRQSLELAYRPIAQLIKAPLSFFHFTYLFYREEADSTEKKGRGEKQIEKLRLIRWEAFRKFRATHMSTTENDTTDDFLATGMTLLGRILRFTQEECTLFTVARWSELLGAVLLNGQERSPPSNYDRLKELVRRLPCGESTMDAFEQEVQMAGNELQHLRQSSRGQGVYTVGCLFNHSCEPNLQVVYSESGDETLSVVALRDIEPGEELCISYIDESLSYPERQQELYEHYLFFCQCPKCEREAAAWEPIEPCEEVLSSAYTFSQLY”, the “soluble on expression in E. coli” value is on record as “not soluble”.

Take “MIAQLQKSLIQQNSTFEKKNNVEVAPIAKISLKDRLASLNNSAEQWKSRPERQPAVQQRRTSANVLQDLPIFQRAQQLHQQQQRPQSFPVVQEKPCDITSGLKKFFGSNPTTSGASSSLPKISEITASNDIDLDAISSKATPVLKTVTRPRAPNRKKSDKSSTFDERIRLDAVKIDEEAFAVVEEEPEKLETQEQAIAAIQGAKQLLKSPTKVSPYPDVMLIQVRGSKNVDVRLVAPAMSSVHEVACFVVVHQKHLMKYEGLYSNILEKTKASQLCIEILGKSDLNCTAESIVTVTGASRSTLSKLLFCSENSESSSENNNYHQASSVEPFETTVAKLNLVLRIAGDNTAETCSRRERLSYEIMKPSEVLIFDFGSEIYVWTGRYSNKVSSAYAQEYAKQLMKKPVKNGKFILGDAESIDQDGRPEWTLSRKIHQGVLDTLFKAKFSDWPETREVLTTCKPRALISKKNPEVKTYEDVKVVNQDDEVADLVERMLQEQELDPILVLEDQEIDRKIHDVISEDRSLWVLRGEVLQSIEEFTEHFDSRRCYVLRWKYRIQKSGVRRIKTGKEEERETGRSRIAFWYWLGEHTTPKQHGLCALRIKEIDRDNSPRIRIADGNEPALFLALFDGKFMVSSDISEMKPLRRYVVIGANSRETSLREIDDLNSPLRSHAAYIEVEKDILGPSSVVCGANCTEDQVHFVLAHAEYMRQKAGVKGNSAEIEVEGDKKSRSWVNSNGRKRAMRVWRLFDNESEQVNHLSGHKNCAFTFSQQVLKETILIDVGDALWLWSEEVITTFALKVAEKYWKDRSGPAKVVYKGAEPEQFKGLFMKWEMFEVEDDKPSDPPRDVSDLLKERCRTFSLEELKERTSLPAGMDMRRLESYLTDDDFMKVFKIERSEFYAQKTWKQNDARKRVGLF”: the “soluble on expression in E. coli” value is “not soluble”.

As to “MNLKEFIIPAIDLMEGKAVRLYKGDFNKVKVYSERPWELAKNFSDLGFKRLHVVDLEGAEGGKPKNLEVIRKIRENFEGEVEVGGGIRSYEVAKALFDEGIDFVVIGTLAYKNKEEFLKILENFPNRVILAIDSKQGKVAIGGWKEETAVSPEEFAKEYENYPIWGYLYTVIERDGSLEGVDVEPYKEIKKHVKKPVIASGGVSSLEDIKKLYGIVEGVVVGKAIYEGRITLEDLQNF”, the “soluble on expression in E. coli” value is “soluble”.

As to “MGEVQREKVAVIIGPTAVGKTKLSIDLAKALNGEIISGDSMQIYRTMDIGTAKVTKAEMDGIPHYMIDIKNPEDSFSVAEFQERVRKHIREITERGKLPIIVGGTGLYIQSVLFDYQFTDDAGDVIYREQREKLALERGVEYVHEKLQEVDPESAERIHANNVRRVIRALEIFHTTGEKMSEQIEKQEKELLYDVSLIGLTMDREMLYDRINLRVDLMMEQGLLEEVEGLYNRGIRDCQSIQAIGYKEIYDYFENRASLEDAVSQLKTNSRRYAKRQLTWFRNKMDVTWFDVTDGEKTSEILRYIEGKLQVKSNNSK”, the “soluble on expression in E. coli” value was “not soluble”.

“MGSDKIHHHHHHMEIEAVEKEAIEKLSKISNVQELESFRIEFLGKKGKITGLMKNLKNLPPEERPAYGKRVNELREKIEKLFEEKRQQIQRILEQEKMEKMRIDVTVPGARRKLGHSHPVLKVMEEIERIFVSMGFDVVEGPEIETTWHNFDALNTPEWHPARDEHDSFYITDDLLLRTHTSPVQIRTMLERKPPIAIISPGKVYRRDYDATHLPMFHQVEGLHVDRDLSVAHLKFTLEEFARRMFGEGAKVRLRPSFFPFTEPSFEVDVYLSGYGWLEILGAGMVDPNVFLNVGYDPEEWTGYAFGMGVERIAMLKYGIADIREFVRNDVRFLSSY”: the “soluble on expression in E. coli” value is listed as “not soluble”.

Take “MSLSRVRLVIAQCTVDYIGRLTAHLPSARRLLLFKADGSVSVHADDRAYKPLNWMSPPCWLTEESGGQAPVWVVENKAGEQLRITIEGIEHDSSHELGVDPGLVKDGVEAHLQALLAEHIQLLGEGYTLVRREYMTAIGPVDLLCSDERGGSVAVEIKRRGEIDGVEQLTRYLELLNRDSVLAPVKGVFAAQQIKPQARILATDRGIRCLTLDYDTMRGMDSGEYRLFEGHHHHHH”: the “soluble on expression in E. coli” value was “soluble”.

On to “SASMDVEEFIGQNRQLADRVEAFRGFSESDKHWKGRREFIFRNMADFPEPQVDHLLALSMVWQNHVFMGCRYSSELLQRVMEMAEGIEVEDAPVFKTRDEIIRQQKQR”, for which the “soluble on expression in E. coli” value was “soluble”.

Consider “MAHSKHGLKEEMTMKYHMEGCVNGHKFVITGEGIGYPFKGKQTINLCVIEGGPLPFSEDILSAGFMYGDRIFTEYPQDIVDYFKNSCPAGYTWGRSFLFEDGAVCICNVDITVSVKENCIYHKSIFNGMNFPADGPVMKKMTTNWEASCEKIMPVPKQGILKGDVSMYLLLKDGGRYRCQFDTVYKAKSVPSKMPEWHFIQHKLLREDRSDAKNQKWQLTEHAIAFPSALA”, for which the “soluble on expression in E. coli” value is “soluble”.

With “MPTLLIRLQGPLQSWGTRSRFDHRDTWPYPTKSGVVGLLAAALGRDRREDVSDLAALRMGVRVDRKGVLKVDYQTAQFVYRTEGYVAVSTPKEREWLSRYTKTPIRVDERNATVTSKRYFLSDAAFLVGLEGERALLEALHRALKNPRFPLYLGRKSYVPSPPPYLPDGLVEAPLAEALEGYPYLLGGKPPEDLLLALEAEEGRLVYDQPAGPFSERRFAARFVREEVLPKERVPEGPPAWEVARVAH”, the “soluble on expression in E. coli” value was “soluble”.

On to “MNNHIEALSYYLGAFVDELTLLNVCDVVISPGSRSTPIALLMEQHEGMNTYLHVDERSAGFFALGIAKAKKRPVALLCTSGTAAANYYPAVCEAFHSRVPLIVLTADRPHELRDVGAPQAMNQINLYGTFVKQFTEMALPEASEAMYHYARLTTQRMIASACLAPQGPVHLNFPVREPLIPDFSLESLWDKGRGEYTGVVQQGNAVMPSEYVDSLVGRLSHMEKGLIICGDDSHSEIAAFATQLAEKTGYPILADPLSNIRSGHHDKTMVIDCYDTFLRNELLKETWKPDVLIRFGGMPVSKALTQFIKKQTKAVHIVVDESGQWRDPALVATEVVQASDIAFCSALIEKMPVMKKNDWFRMWQHINEKTKETLREMETYDTAFEGRVITDIVRVLPEGATLFASNSMPIRDTDSFFFTSDKNIQVMANRGVNGIDGIISTALGASMICDPLVLVIGDLSFYHDLNGLLAAKLHELNITIVVVNNDGGGIFSFLPQYEKKEHFESLFGTPIGLDYEHVVTMYGGSFSRVNGWEQFREEVQKGVTTEGLHVVEICTNRDENLTLHRTLWAKTQDVITTSLQGESK”, for which the “soluble on expression in E. coli” value was “soluble”.

“MKNPRHIAVIDIGKTNAKLALVDLQNHREIAVLTRPNTVLPGPPWRHFDTDGHWDFLLAALKVLHGEHGIDAISISTHGASVVLLDAQGDLAAPVLDYEHPIPADIAQAYDAIRPPFAQTGSARLANGLNVGAQLFYQFAQDPGLRDRTRHIVGYPQYWGHRLTGEFAWDVTSIGCHTDLWEPVTGRFSSLVDRLGIAEKLAPVRHCADVLGSILPEVAAATGLSADTPVTVGIHDSNASLYPHLLTQEAPFSVVSTGTWVVAMAVGSKVPGLDPTRDTLVNVNAMGQPVPSARFMGGREHEVIQAGQPCPPTPQDVAQVLADSVMILPAVEPASGPFQGRKMRWSGPEPAPGTGPRSAALSFYLALMTSTCLALIAARGVTIVEGPFAQNREFKSMLSVATGRAVLHSQSATGTSMGASLLFSSDRTPPLPQTNVSEEDAQAYRTYAKEWHQQITLEHHHHHH”: the “soluble on expression in E. coli” value is “not soluble”.

Regarding “MPTAIDLFAGLGGWSNGARRAGVKVLWAANHWPVAVGWHSANHPDAIHVCQDLHQADWSKVPAHGIMLASPCCQGHSKARGKKSGNAQHDSSRSTAWAVVSAAEYHSPEVVLVENVEEFTDWALYPAWSQAMAALGYMIAPHVVDCADLGVPQHRVRLFLVCTRSKAPLNLQLHQRQHVPASSFIDFDSGKWSPIVKPSRAESTLTRVKNGRQRFGERFIMPYYRSGSGLTGSCIERPIGTITKLDRWALVRGNEMRMLSADEGLAGMSFDADTKRPASHRLTMHMAGTSTNPVG”, the “soluble on expression in E. coli” value is reported as “not soluble”.

“MSLVLAYYSGYAGNYAALTRYAASFNAVAVDFYNITAQGAVTGNGDPAPNDAISFLLGRKIPAYGCVSNVDGNGNWSADIAHAVSTSAQSQAVANLVKFAQDKRFSGINVDFEAVAQGDRNNFSHFIQVLGRALHAKGLKLIVSVPAFSAKDENHPANYGYDLRALGAAADYLQIMSYDEAIPAWDPGPVAGSDWMEDDLDYAVERVPAAKILNGIPAYGYDWKRPGDGGMLYWKDTQALIARYGAQPRYDAGTHSLTFNYGAADGSRHTVWTENARSVALKASLVNAYGLGGTSLYALGMEDEGHHHHHH”: the “soluble on expression in E. coli” value is on record as “soluble”.

For “MFARAPFVRLLSTTSRNLAEAEKKVSKEALMALRKKTGYSYVNCRKALIQFGENDMDSAVKWLKEAAAKEGWAKAAKLGTRVTSNGLVSVVTDNSTAAVVELSCETDFVARSGAFKDLLSNISNSVLAKAKPQSISSGSKLQEFTYDLGDLTDSDGKNMREVLSLSIGKLGENMTVRRVKAFKAPEGTTLFGASHPKDGTDDIPMGRFISLIALNQSSPGSISSQQLAGQICQHIIGMSPESLGEAAESVKTQEGLRSQEGHDPNADPVVVTNIDESETALLRQAFMLNPSQSVHEYLKSHNANILDFVRVELGSE”, the “soluble on expression in E. coli” value is recorded as “not soluble”.
